The text below walks through data of doi:10.1101/2024.06.14.598999 (bioRxiv, 2024).

Assay [1] deals with T1, AP5 ζ/σ5 subcomplex, purified (mouse GST-AP5ζ-Twin-Strep with human AP5σ5) (mouse | human, UniProt Q3U829 1-807; Q9NUS5 1-200).
T1 sequence (looked up) 1: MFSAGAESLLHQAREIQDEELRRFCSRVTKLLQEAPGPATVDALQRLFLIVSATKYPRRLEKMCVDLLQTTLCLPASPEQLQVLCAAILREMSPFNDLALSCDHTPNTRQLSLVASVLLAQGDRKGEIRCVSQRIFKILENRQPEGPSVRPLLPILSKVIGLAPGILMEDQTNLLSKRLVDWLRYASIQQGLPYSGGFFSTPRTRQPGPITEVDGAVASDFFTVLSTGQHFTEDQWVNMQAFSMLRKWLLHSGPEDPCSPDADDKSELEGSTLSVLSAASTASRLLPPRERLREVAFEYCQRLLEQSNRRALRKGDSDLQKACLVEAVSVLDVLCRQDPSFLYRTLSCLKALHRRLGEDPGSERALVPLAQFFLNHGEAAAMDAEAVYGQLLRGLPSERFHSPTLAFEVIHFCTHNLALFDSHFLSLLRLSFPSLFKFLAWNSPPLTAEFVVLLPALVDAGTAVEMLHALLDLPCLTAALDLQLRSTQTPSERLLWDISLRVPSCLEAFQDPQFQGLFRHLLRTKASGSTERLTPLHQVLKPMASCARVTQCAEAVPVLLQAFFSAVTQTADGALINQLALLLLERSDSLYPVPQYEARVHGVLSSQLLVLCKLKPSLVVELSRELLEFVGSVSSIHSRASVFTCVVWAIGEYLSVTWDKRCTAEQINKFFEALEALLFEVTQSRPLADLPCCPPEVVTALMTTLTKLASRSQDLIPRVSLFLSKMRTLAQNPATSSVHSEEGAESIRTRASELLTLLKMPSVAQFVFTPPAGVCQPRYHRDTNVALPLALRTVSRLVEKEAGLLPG
T1 sequence (looked up) 2: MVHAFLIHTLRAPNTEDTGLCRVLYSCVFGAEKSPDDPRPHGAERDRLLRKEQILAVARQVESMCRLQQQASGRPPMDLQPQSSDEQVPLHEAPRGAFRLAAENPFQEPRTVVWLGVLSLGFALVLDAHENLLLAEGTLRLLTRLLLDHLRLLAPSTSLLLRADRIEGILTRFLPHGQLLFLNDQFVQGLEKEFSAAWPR
As to the kind of experiment: SEC.

Assay [2] concerns the target T2, AP5 β5^trunk/µ5 subcomplex, purified (human GST-AP5β5(1-632)-Twin-Strep with mouse AP5μ5) (human | mouse, UniProt Q2VPB7 1-632; Q8BJ63 1-490).
T2 sequence (looked up) 1: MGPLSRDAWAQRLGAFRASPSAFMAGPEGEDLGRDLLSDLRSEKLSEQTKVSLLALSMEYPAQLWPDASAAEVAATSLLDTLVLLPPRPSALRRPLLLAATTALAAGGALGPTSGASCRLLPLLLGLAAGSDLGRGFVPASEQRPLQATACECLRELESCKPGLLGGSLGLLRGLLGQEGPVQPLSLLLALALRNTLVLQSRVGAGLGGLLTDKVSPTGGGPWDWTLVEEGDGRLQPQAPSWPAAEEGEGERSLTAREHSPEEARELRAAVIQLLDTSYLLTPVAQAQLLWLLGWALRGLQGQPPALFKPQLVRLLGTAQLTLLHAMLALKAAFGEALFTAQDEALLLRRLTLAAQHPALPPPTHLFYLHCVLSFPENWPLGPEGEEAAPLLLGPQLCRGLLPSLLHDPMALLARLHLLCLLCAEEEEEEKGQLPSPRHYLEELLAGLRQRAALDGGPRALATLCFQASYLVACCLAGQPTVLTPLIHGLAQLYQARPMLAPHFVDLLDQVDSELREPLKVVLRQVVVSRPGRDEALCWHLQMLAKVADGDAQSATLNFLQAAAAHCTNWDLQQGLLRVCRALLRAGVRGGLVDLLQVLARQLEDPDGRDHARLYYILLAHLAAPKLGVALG
T2 sequence (looked up) 2: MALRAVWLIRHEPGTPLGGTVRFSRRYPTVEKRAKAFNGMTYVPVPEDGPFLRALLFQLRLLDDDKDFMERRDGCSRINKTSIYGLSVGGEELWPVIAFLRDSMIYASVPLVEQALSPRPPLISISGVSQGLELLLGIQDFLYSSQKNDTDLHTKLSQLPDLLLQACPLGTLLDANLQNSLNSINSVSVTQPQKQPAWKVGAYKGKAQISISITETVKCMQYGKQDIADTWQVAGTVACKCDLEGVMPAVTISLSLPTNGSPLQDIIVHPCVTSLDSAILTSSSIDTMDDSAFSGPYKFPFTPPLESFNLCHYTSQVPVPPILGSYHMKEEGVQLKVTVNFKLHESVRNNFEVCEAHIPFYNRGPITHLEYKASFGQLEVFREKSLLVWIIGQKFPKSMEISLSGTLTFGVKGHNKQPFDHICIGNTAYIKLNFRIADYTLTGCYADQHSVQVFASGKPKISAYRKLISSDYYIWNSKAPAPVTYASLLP
As to the kind of experiment: SEC.

B1: SPG11^WD40-hairpin (human SPG11 residues 1-525) as incubated with the AP5 subcomplexes for size exclusion chromatography (domain or fragment, UniProt Q96JI7 1-525, looked up)
chain: MAAEEGVASAASAGGSWGTAAMGRVLPMLLVPVPAEAMGQLGSRAQLRTQPEALGSLTAAGSLQVLSLTPGSRGGGRCCLEGPFWHFLWEDSRNSSTPTEKPKLLALGENYELLIYEFNLKDGRCDATILYSCSREALQKLIDDQDISISLLSLRILSFHNNTSLLFINKCVILHIIFPERDAAIRVLNCFTLPLPAQAVDMIIDTQLCRGILFVLSSLGWIYIFDVVDGTYVAHVDLALHKEDMCNEQQQEPAKISSFTSLKVSQDLDVAVIVSSSNSAVALNLNLYFRQHPGHLLCERILEDLPIQGPKGVDEDDPVNSAYNMKLAKFSFQIDRSWKAQLSSLNETIKNSKLEVSCCAPWFQDILHLESPESGNHSTSVQSWAFIPQDIMHGQYNVLQKDHAKTSDPGRSWKIMHISEQEEPIELKCVSVTGFTALFTWEVERMGYTITLWDLETQGMQCFSLGTKCIPVDSSGDQQLCFVLTENGLSLILFGLTQEEFLNRLMIHGSASTVDTLCHLNGWGR
Take B1: the binding result in assay [1] and in assay [2] was “binds” throughout.
